Assay results as given in paper PMC5008402.

How the values were obtained:
phospho-specific blot = conditions: glycan lost; control: WT TAB3
[1] = Flag IP, pThr404 TAB3 blot; conditions: glycan lost; control: WT TAB3, IL-1β treated

B1: TAK1 binding protein 3 (TAB3): S408A (protein)
parent chain: MAQSSPQLDIQVLHDLRQRFPEIPEGVVSQCMLQNNNNLEACCRALSQESSKYLYMEYHSPDDNRMNRNRLLHINLGIHSPSSYHPGDGAQLNGGRTLVHSSSDGHIDPQHAAGKQLICLVQEPHSAPAVVAATPNYNPFFMNEQNRSAATPPSQPPQQPSSMQTGMNPSAMQGPSPPPPPPSYMHIPRYSTNPITVTVSQNLPSGQTVPRALQILPQIPSNLYGSPGSIYIRQTSQSSSGRQTPQSTPWQSSPQGPVPHYSQRPLPVYPHQQNYQPSQYSPKQQQIPQSAYHSPPPSQCPSPFSSPQHQVQPSQLGHIFMPPSPSTTPPHPYQQGPPSYQKQGSHSVAYLPYTASSLSKGSMKKIEITVEPSQRPGTAINRSPSPISNQPSPRNQHSLYTATTPPSSSPSRGISSQPKPPFSVNPVYITYTQPTGPSCTPSPSPRVIPNPTTVFKITVGRATTENLLNLVDQEERSAAPEPIQPISVIPGSGGEKGSHKYQRSSSSGSDDYAYTQALLLHQRARMERLAKQLKLEKEELERLKSEVNGMEHDLMQRRLRRVSCTTAIPTPEEMTRLRSMNRQLQINVDCTLKEVDLLQSRGNFDPKAMNNFYDNIEPGPVVPPKPSKKDSSDPCTIERKARRISVTSKVQADIHDTQAAAADEHRTGSTQSPRTQPRDEDYEGAPWNCDSCTFLNHPALNRCEQCEMPRYT
other: TAB3 S60 and S506 phosphorylation (phospho-specific blot): no change
other: TAB3 Thr404 phosphorylation [1]: decreases
